From US20050272093A1 (ROCKEFELLER UNIVERSITY, published 2005)

Biological target: T1, radiolabeled agitoxin2 (D20C conjugated with tritiated N-ethylmaleimide) (Leiurus quinquestriatus hebraeus, UniProt P46111 1-38)
T1 construct: mature
Assay: filter binding assay with tritiated agitoxin2

B1: wild type kcsa K+ channel from Streptomyces lividans (other)
chain: MPPMLSGLLARLVKLLLGRHGSALHWRAAGAATVLLVIVLLAGSYLAVLAERGAPGAQLITYPRALWWSVETATTVGYGDLYPVTLWGRLVAVVVMVAGITSFGLVTAALATWFVGREQERRGHFVRHSEKAAEEAYTRTTRALHERFDRLERMLDDN
- binding result: no binding
